Assay results from patent publication US20130217865A1 (VIVENTIA BIOTECHNOLOGIES, published 2013).
Where no end group is shown, it is not given here. The star is where a group is joined. Biotin = O=C1N[C@H]2[C@H](CS[C@H]2CCCCC(=O)*)N1

B1: VB1-008 monoclonal antibody (antibody, human IgG1, V domains shown)
VH: QVQLQELGPRLVRPSQTLILTCTVSGGSVSGDEYYWSWLRQTPGKGLEWIGYMSYRGSSYYSPSLQSRVTIAVDRSKNEFSLKLTSVTAADAAVYFCARKYCGGDCRSGFDIWGRGTMVTVAS
VL: YELTQPPSVSVSPGQKAFITCSGDNLGNKYVCWYQQKPGQSPVLVIYEDTKRPSGIPERFSASNSGNTATLTISGTQPIDEADYYCQAWDSRTEIFGTGTKVTVLS
notes: also called 17P2/C12
B2: Peptide 1: Biotin-STDRIPATNMD (peptide)
peptide: Biotin-STDRIPATNMD
B3: Negative control peptide: Biotin-AVEDRKPSGLN (peptide)
peptide: Biotin-AVEDRKPSGLN

How the values were obtained:
[1] = molecular target: B2; experiment: ELISA on peptide-coated plates
Method: (§1) Peptide solutions were diluted 1-in-100 with Hank's buffered saline solution (HBSS) containing 0.5% formaldehyde. 10Q̂iL of diluted peptide solution was distributed to each well in a 96-well plate. The plates were incubated at room temperature for 1 hour. The supernatant was removed and the plates were placed uncovered in a 37° C. incubator for 16-18 hours. The peptide-coated plates were placed in plastic bags and stored at 2-8° C. until required.
(§2) Following overnight incubation of the peptide-coated plates, 300 μL of wash buffer (PBS containing 0.5% Tween20) was manually added to each plate, with the help of a repeator pipette equipped with an 8-channel adaptor. The contents of the plates were discarded; the plates were inverted and patted on 3-4 inches of paper towel to remove excess liquid. The above steps were repeated two more times.
(§3) The plates were washed as previously described with the wash buffer (PBS containing 0.5% Tween 20). The plates were incubated with 1:6000 dilution of anti-human IgG-HRP for one hour at room temperature. The plates were washed as previously described. 100 μL of TMB substrate (TMB peroxidase substrate KPL cat #50-76-00) was added to each well and incubated for 5-10 minutes in the dark. The reaction was terminated by adding 100 μL of 1M phosphoric acid to each well. The optical density was measured at 450 nm using an ELISA plate reader.

[2] = molecular target: B3; experiment: ELISA on peptide-coated plates
Method: as §1, §2, §3

[3] = molecular target: T1, Peptide 3: Biotin-ATNMDSSHSIT (human); experiment: ELISA on peptide-coated plates, 75 µg/mL VB1-008
T1 peptide: Biotin-ATNMDSSHSIT
Method: as §1, §3

[4] = molecular target: B1; experiment: peptide competition, flow cytometry on MDA-MB-435S cells

Binder	binding result [1]	binding result [2]	binding result [3]	binding result [4]
B1	no binding (tested: 75 µg/mL VB1-008)	no binding (tested: 75 µg/mL VB1-008)	binds	–
B2	–	–	–	no binding
B3	–	–	–	no binding
